Results from article PMC4006948 (Molecular cell, 2013).

B1: Cmr5 (TTHB164) (natural protein, Thermus thermophilus HB8 (endogenous), UniProt Q53W05 1-114, looked up)
chain: MRTRSQVWAQKAYEKVREAAKGEGRGEYRDMALKLPVLVRQAGLSQALAFVDSRGKEAHKALGNDLAQVLGYRDLRELAEAAREAELLQYLRLTREVLAAAEWFKRFAQALIEE
B2: Cmr1 (TTHB162) (natural protein, Thermus thermophilus HB8 (endogenous), UniProt Q53W07 1-395, looked up)
chain: MRRAFREAFSPRRKEEGGVLVRRDGARVLAWERTYTLLTPLFGGGVEPREADPVSVVRATAVRGHLRFWWRAVRGWRAGGSLERLWELESALFGSAGEGGASPLSVEVEVLREGEKVGIAQYGRAVQWYLGFPLRGDKEWAPVKEGVAFRLRLRFPEKVGELNFWEELEAALWAWETFGGIGARTRRGFGALLPQGAGVPGEEEIREKLRQYGQKAGWPEGVPHLTPKSFVRVVPLSWRELAERYQAFRQARPGGDPRSPGRSYWPEPDGVRRLTGRHAPHHLPRHPVHKFPRAHFGLPIIFHFKDRGDPPDTTLRLKEADRRASPLLFRPLGEGQKPCVVAVLEGARFPGEKLVLEGKDGRTWDVDPWLTPEEAQKIPVLGGEVDPVLAFVKSL
B3: Cmr2 (TTHB160) (natural protein, Thermus thermophilus HB8 (endogenous), UniProt Q53W09 1-584, looked up)
chain: MEHLLAIALGPVQEFIATARRTRDLYAGSRLLSEAAARAAKALAREVGAKNLIFPAPEDEAGLERLAGAGIPNVLLVRVPEGKDPRGLGEQALGAARDYLRERAEEVLGPRRDLLFWREALAQVEDLLEGYYAYLPLEGDYPRARERLMALLAARKNTRDFAPVSWGSPAYKSSLDGARESVLRLPEKEADHLRVRLGLRPGEYLAGPDLLKRWWKAGHGFLSTTHMAALPFWEGVRRAGLEAVLKEALEELGGLVGEEARAEVRHPVLRDTPFGEWDVRLLYESRLEEFPSLAEDPGLLEKARDRLRALWRRLFPKVRVPPGAYYALLHADGDRMGETLDGLPSPEAHRRFSNALALGFAAQVKDIVEAHGGGLVYSGGDDVLALLPLHTALMAARALADRFREAMAPFGREGRAPSLSVGLAVVHHLEPLQDALDLARRAEKWAKEGEPKRNALCVAYSPRSGAERLVRGRWDENPPLTRRLLRYADLLRAGEVPSRAAYELLALVREAGEALSGEALVAEALRILGRKEMKRAYREELEAWLRTGEDVRRLAEELILARPFAEALDQAGVPVESREVWDAH
B4: Cmr6 (TTHB165) with a (His)6 tag at its C-terminus (natural protein, Thermus thermophilus HB8, UniProt Q53W04 2-348, looked up)
chain: GRRSALEGVRLPQGKEPHRGLWLDKFLRSARREDTEAKRVLVREAAGIPEPGEYRAFFKRYRGALEALGAEIREARTLSRLVVGLGGEGVLETALTLHRAYGVPYIPGSALKGLASRYAHLYLEGEAWRRDLARFHRGEAQAGLFGTTEEQGLVVFWDALPLPGKWKLHPDILNPHHPDYYGSVKAPPADWDGPKPVPFLSATGTFLLALSPAPGVSPEEAGPWLRAAWRILAWALREEGVGAKTSSGYGRMALEEPASQGEKPLAPGPSPVLQDLLTWARALSYREVPRFLASQAEAILGLSVEEAQALRRALEERGFLRNPQDLKRWRKEHPGLEGVLAKLGLSA
B5: Cmr4 (TTHB163) (natural protein, Thermus thermophilus HB8 (endogenous), UniProt Q53W06 2-286, looked up)
chain: SHVALLFLHALSPLHAGTGQGIGAIDLPIAREKATGIPYLPGSSLKGVLRDRASAWDRDTLFAVFGPDTENASEHAGAVQVGDAKLLLLPVRSLYGVFALVASPYLLERFRREALMAGLQPPGVPGLQDPTRVLLAPGSRLLGDGEKVYLEDLDLKAQGEEGVAAWERWLAERTEAPVLGRLAVVHDDLMGFLLETATEVVARIRLDDETKTVAKGALWYEESLPAESLLYALVRADRSFRKGKELPPEGVWALFRGVLEEGGGVLQLGGKATVGRGLCRIVVGR
B6: recombinant Cmr3 (TTHB161), no tag (natural protein, Thermus thermophilus HB8, UniProt Q53W08 1-361, looked up)
chain: MLIEPRDPLIVRDGRPFTNSPGARAKSLPFPLPQTLAGAYRTRRALLEGLPLPERAEEVLRWGLRGPLLAEEGEGGWRLLAPRPLDALKLGEALYPLRPLELPQGAGTNLPEGLSPVGLPSPALKEKPAPLPAFWYWESFLEWLLQDAPAGFAPRGHEGPVPETRTHVALDPAAQTAREGFLFQTSGLEFVRGRRRLALVLWPEGPEPEGVFPLGGERRLAFWQKGGPGVPPLPEEVVAGLLRHRAARLVFLTPAFLGEAYLPKGRAFQGASVVAAVVGRPLAVSGWNLKEGKPKPSRRAVPAGSVYFVRLPEAWGEGEVRDWAEKVWFQNLSEEEQDRRDGFGLAALGLWDGKLRRWEEA
B7: Cmr3 (TTHB161) (natural protein, Thermus thermophilus HB8 (endogenous), UniProt Q53W08 1-361, looked up)
chain: B6 chain

Experiments:
[1] = target: B4; experiment: native MS
[2] = target: B5; experiment: negative-stain electron microscopy, single particle reconstruction
[3] = target: B2; experiment: affinity purification with mass spectrometry
[4] = target: B3; experiment: affinity purification with mass spectrometry
[5] = target: B7; experiment: affinity purification with mass spectrometry
[6] = target: the molecule itself; experiment: negative-stain electron microscopy, single particle reconstruction
[7] = target: T1, recombinant Cmr2 (TTHB160), no tag (Thermus thermophilus HB8, UniProt Q53W09 1-584); experiment: native MS
T1 sequence (looked up): B3 chain

[8] = target: B3; experiment: negative-stain electron microscopy, single particle reconstruction

B1 was tested, and the “stoichiometry N” value [1] was 3 copies per Cmr6 and the binding result [2] was “binds”.

B2 was tested, and the “stoichiometry N” value [1] was 1 copies per Cmr6.

B3 was tested, and the “stoichiometry N” value [1] was 1 copies per Cmr6.

B4: binds [3]; binds [4]; binds [5].

With B5 the “stoichiometry N” value [1] was 4 copies per Cmr6 and the “stoichiometry N” value [6] was 4.

B6: binds [7].

B7 was tested, and the “stoichiometry N” value [1] was 1 copies per Cmr6 and the binding result [8] was “binds”.
